{
  "source": "paper PMC8575462",
  "about": "“PP2A/B55α substrate recruitment as defined by the retinoblastoma-related protein p107” (eLife, 2021)",
  "parents": {"B1": {"name": "GST-p107 R1R2 [not stated] / B55α (PP2A regulatory subunit B55α), endogenous in U-2 OS cells [human (endogenous in U-2 OS)] (parent complex)", "chain 1": "KVPTCEEVIFPNNFETGNGGNVQGHLPLMPMSPLMHPRVKEVRTDSGSLRRDMQPLSPISVHERYSSPTAGSAKRRLF", "chain 2": "MAGAGGGNDIQWCFSQVKGAVDDDVAEADIISTVEFNHSGELLATGDKGGRVVIFQQEQENKIQSHSRGEYNVYSTFQSHEPEFDYLKSLEIEEKINKIRWLPQKNAAQFLLSTNDKTIKLWKISERDKRPEGYNLKEEDGRYRDPTTVTTLRVPVFRPMDLMVEASPRRIFANAHTYHINSISINSDYETYLSADDLRINLWHLEITDRSFNIVDIKPANMEELTEVITAAEFHPNSCNTFVYSSSKGTIRLCDMRASALCDRHSKLFEEPEDPSNRSFFSEIISSISDVKFSHSGRYMMTRDYLSVKIWDLNMENRPVETYQVHEYLRSKLCSLYENDCIFDKFECCWNGSDSVVMTGSYNNFFRMFDRNTKRDITLEASRENNKPRTVLKPRKVCASGKRKKDEISVDSLDFNKKILHTAWHPKENIIAVATTNNLYIFQDKVN"}, "B2": {"name": "Myc-B55α wild type [not stated] / Flag-pRB [not stated] (parent complex)", "chain 1": "B1 chain 2", "chain 2": "MPPKTPRKTAATAAAAAAEPPAPPPPPPPEEDPEQDSGPEDLPLVRLEFEETEEPDFTALCQKLKIPDHVRERAWLTWEKVSSVDGVLGGYIQKKKELWGICIFIAAVDLDEMSFTFTELQKNIEISVHKFFNLLKEIDTSTKVDNAMSRLLKKYDVLFALFSKLERTCELIYLTQPSSSISTEINSALVLKVSWITFLLAKGEVLQMEDDLVISFQLMLCVLDYFIKLSPPMLLKEPYKTAVIPINGSPRTPRRGQNRSARIAKQLENDTRIIEVLCKEHECNIDEVKNVYFKNFIPFMNSLGLVTSNGLPEVENLSKRYEEIYLKNKDLDARLFLDHDKTLQTDSIDSFETQRTPRKSNLDEEVNVIPPHTPVRTVMNTIQQLMMILNSASDQPSENLISYFNNCTVNPKESILKRVKDIGYIFKEKFAKAVGQGCVEIGSQRYKLGVRLYYRVMESMLKSEEERLSIQNFSKLLNDNIFHMSLLACALEVVMATYSRSTSQNLDSGTDLSFPWILNVLNLKAFDFYKVIESFIKAEGNLTREMIKHLERCEHRIMESLAWLSDSPLFDLIKQSKDREGPTDHLESACPLNLPLQNNHTAADMYLSPVRSPKKKGSTTRVNSTANAETQATSAFQTQKPLKSTSLSLFYKKVYRLAYLRLNTLCERLLSEHPELEHIIWTLFQHTLQNEYELMRDRHLDQIMMCSMYGICKVKNIDLKFKIIVTAYKDLPHAVQETFKRVLIKEEEYDSIIVFYNSVFMQRLKTNILQYASTRPPTLSPIPHIPRSPYKFPSSPLRIPGGNIYISPLKSPYKISEGLPTPTKMTPRSRILVSIGESFGTSEKFQKINQMVCNSDRVLKRSAEGSNPPKPLKKLRFDIEGSDEADGSKHLPGESKFQQKLAEMTSTRTRMQKQKMNDSMDTSNKEEK"}},
  "data": [
    {"variants_of": "B1", "experiment": "GST pull-down, western blot; U2-OS lysates; triplicate; read off a plot", "values": [
      {"variant": "chain 1 R43A", "ratio to parent": "~0.47"},
      {"variant": "chain 1 R38A, chain 1 K40A", "ratio to parent": "~0.05"},
      {"variant": "chain 1 R50A, chain 1 R51A", "ratio to parent": "~1"}
    ]},
    {"variants_of": "B2", "experiment": "co-immunoprecipitation (anti-Myc IP), western blot quantitation; 293T cells, co-transfected; read off a plot", "values": [
      {"variant": "chain 1 E283A", "ratio to parent": "~0.3"},
      {"variant": "chain 1 D197K", "ratio to parent": "~-0.2"},
      {"variant": "chain 1 H179A", "ratio to parent": "~0.8"},
      {"variant": "chain 1 E347A", "ratio to parent": "~0.55"},
      {"variant": "chain 1 K48E", "ratio to parent": "~0.95"},
      {"variant": "chain 1 K345A", "ratio to parent": "~0.65"},
      {"variant": "chain 1 L225A", "ratio to parent": "~0.2"},
      {"variant": "chain 1 K98A", "ratio to parent": "~0.65"},
      {"variant": "chain 1 N181A", "ratio to parent": "~1.1"},
      {"variant": "chain 1 V228A", "ratio to parent": "~0.85"},
      {"variant": "chain 1 S247A", "ratio to parent": "~1.5"},
      {"variant": "chain 1 S287A", "ratio to parent": "~1.5"},
      {"variant": "chain 1 F280A", "ratio to parent": "~0.5"},
      {"variant": "chain 1 D116A", "ratio to parent": "~0.35"},
      {"variant": "chain 1 T436A", "ratio to parent": "~0.7"}
    ]}
  ]
}
